The values that follow come from US20110086019A1 (DOMANTIS, published 2011).

For assay [1], the target named is human TNFR1 (soluble recombinant protein) (human) (UniProt P19438). Description: phage ELISA on plate coated with 1 nM TNFR1, anti-M13-HRP; 0 µg/ml trypsin; phage input 1.13E+10. In general terms: ELISA stands for enzyme-linked immunosorbent assay.
For assay [2] the target is unchanged. Description: phage ELISA on plate coated with 1 nM TNFR1, anti-M13-HRP; 0 µg/ml trypsin; phage input 1.41E+09.
Assay [3] has the same target. Briefly: phage ELISA on plate coated with 1 nM TNFR1, anti-M13-HRP; 0 µg/ml trypsin; phage input 2.26E+10.
For assay [4] the target is unchanged. Briefly: phage ELISA on plate coated with 1 nM TNFR1, anti-M13-HRP; 0 µg/ml trypsin; phage input 2.82E+09.
For assay [5] the target is unchanged. Description: phage ELISA on plate coated with 1 nM TNFR1, anti-M13-HRP; 0 µg/ml trypsin; phage input 3.52E+08.
Assay [6] shares this target. Description: phage ELISA on plate coated with 1 nM TNFR1, anti-M13-HRP; 0 µg/ml trypsin; phage input 4.51E+10.
Assay [7] shares this target. Briefly: phage ELISA on plate coated with 1 nM TNFR1, anti-M13-HRP; 0 µg/ml trypsin; phage input 5.64E+09.
For assay [8] the target is unchanged. Description: phage ELISA on plate coated with 1 nM TNFR1, anti-M13-HRP; 0 µg/ml trypsin; phage input 7.05E+08.
Assay [9] has the same target. Briefly: phage ELISA on plate coated with 1 nM TNFR1, anti-M13-HRP; phage treated 1 h at room temperature with 1 mg/ml trypsin; phage input 1.13E+10.
Assay [10] shares this target. Description: phage ELISA on plate coated with 1 nM TNFR1, anti-M13-HRP; phage treated 1 h at room temperature with 1 mg/ml trypsin; phage input 1.41E+09.
Assay [11] shares this target. Description: phage ELISA on plate coated with 1 nM TNFR1, anti-M13-HRP; phage treated 1 h at room temperature with 1 mg/ml trypsin; phage input 2.26E+10.
Assay [12] has the same target. Description: phage ELISA on plate coated with 1 nM TNFR1, anti-M13-HRP; phage treated 1 h at room temperature with 1 mg/ml trypsin; phage input 2.82E+09.
Assay [13] shares this target. Briefly: phage ELISA on plate coated with 1 nM TNFR1, anti-M13-HRP; phage treated 1 h at room temperature with 1 mg/ml trypsin; phage input 3.52E+08.
For assay [14] the target is unchanged. Briefly: phage ELISA on plate coated with 1 nM TNFR1, anti-M13-HRP; phage treated 1 h at room temperature with 1 mg/ml trypsin; phage input 4.51E+10.
For assay [15] the target is unchanged. Description: phage ELISA on plate coated with 1 nM TNFR1, anti-M13-HRP; phage treated 1 h at room temperature with 1 mg/ml trypsin; phage input 5.64E+09.
The target is the same in assay [16]. Briefly: phage ELISA on plate coated with 1 nM TNFR1, anti-M13-HRP; phage treated 1 h at room temperature with 1 mg/ml trypsin; phage input 7.05E+08.
For assay [17] the target is unchanged. Briefly: phage ELISA on plate coated with 1 nM TNFR1, anti-M13-HRP; phage treated 1 h at room temperature with 10 µg/ml trypsin; phage input 1.13E+10.
Assay [18] shares this target. Briefly: phage ELISA on plate coated with 1 nM TNFR1, anti-M13-HRP; phage treated 1 h at room temperature with 10 µg/ml trypsin; phage input 1.41E+09.
Assay [19] has the same target. Briefly: phage ELISA on plate coated with 1 nM TNFR1, anti-M13-HRP; phage treated 1 h at room temperature with 10 µg/ml trypsin; phage input 2.26E+10.
The target is the same in assay [20]. Briefly: phage ELISA on plate coated with 1 nM TNFR1, anti-M13-HRP; phage treated 1 h at room temperature with 10 µg/ml trypsin; phage input 2.82E+09.
Assay [21] shares this target. Briefly: phage ELISA on plate coated with 1 nM TNFR1, anti-M13-HRP; phage treated 1 h at room temperature with 10 µg/ml trypsin; phage input 3.52E+08.
Assay [22] shares this target. Briefly: phage ELISA on plate coated with 1 nM TNFR1, anti-M13-HRP; phage treated 1 h at room temperature with 10 µg/ml trypsin; phage input 4.51E+10.
The target is the same in assay [23]. Description: phage ELISA on plate coated with 1 nM TNFR1, anti-M13-HRP; phage treated 1 h at room temperature with 10 µg/ml trypsin; phage input 5.64E+09.
The target is the same in assay [24]. Briefly: phage ELISA on plate coated with 1 nM TNFR1, anti-M13-HRP; phage treated 1 h at room temperature with 10 µg/ml trypsin; phage input 7.05E+08.
The target is the same in assay [25]. Briefly: phage ELISA on plate coated with 1 nM TNFR1, anti-M13-HRP; phage treated 1 h at room temperature with 100 µg/ml trypsin; phage input 1.13E+10.
Assay [26] has the same target. Briefly: phage ELISA on plate coated with 1 nM TNFR1, anti-M13-HRP; phage treated 1 h at room temperature with 100 µg/ml trypsin; phage input 1.41E+09.
The target is the same in assay [27]. Briefly: phage ELISA on plate coated with 1 nM TNFR1, anti-M13-HRP; phage treated 1 h at room temperature with 100 µg/ml trypsin; phage input 2.26E+10.
The target is the same in assay [28]. Briefly: phage ELISA on plate coated with 1 nM TNFR1, anti-M13-HRP; phage treated 1 h at room temperature with 100 µg/ml trypsin; phage input 2.82E+09.
Assay [29] shares this target. Briefly: phage ELISA on plate coated with 1 nM TNFR1, anti-M13-HRP; phage treated 1 h at room temperature with 100 µg/ml trypsin; phage input 3.52E+08.
Assay [30] has the same target. Briefly: phage ELISA on plate coated with 1 nM TNFR1, anti-M13-HRP; phage treated 1 h at room temperature with 100 µg/ml trypsin; phage input 4.51E+10.
Assay [31] shares this target. Description: phage ELISA on plate coated with 1 nM TNFR1, anti-M13-HRP; phage treated 1 h at room temperature with 100 µg/ml trypsin; phage input 5.64E+09.
Assay [32] has the same target. Description: phage ELISA on plate coated with 1 nM TNFR1, anti-M13-HRP; phage treated 1 h at room temperature with 100 µg/ml trypsin; phage input 7.05E+08.
A further assay has as its target T1, TNFR1-FC fusion (human, UniProt P19438 22-211).
T1 construct: not shown: Fc part not described (captured with goat anti-human IgG (H&L))
T1 sequence (looked up): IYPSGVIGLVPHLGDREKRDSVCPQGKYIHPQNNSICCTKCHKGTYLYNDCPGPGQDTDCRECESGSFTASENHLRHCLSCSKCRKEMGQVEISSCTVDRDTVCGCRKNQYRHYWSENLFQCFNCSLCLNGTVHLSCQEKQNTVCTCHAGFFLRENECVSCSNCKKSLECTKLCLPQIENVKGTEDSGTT
Description: human TNFR1 receptor binding assay: inhibition of the binding of TNF-alpha (10 ng/ml) to bead-captured TNFR1-Fc; four replicates.

For DOM1h-131 phage, the phage ELISA signal in assay [1] was determined as 0.949; in assay [2], 0.85; in assay [3], 0.944; in [4], 0.946; in assay [5] it was 0.577; in assay [6] it was 0.916. The phage ELISA signal in assay [7] turned out to be 0.962; in assay [8], 0.705; in assay [9], 0.183; in [10] it was 0.089; in [11] it was 0.229; in assay [12] it was 0.114. Further, the phage ELISA signal in assay [13] stood at 0.08; in assay [14] it was 0.284; in assay [15] it was 0.133; in assay [16] it was 0.084; in assay [17], 0.86; in assay [18] it was 0.409. Also, the phage ELISA signal in [19] amounted to 0.802; in assay [20] it was 0.573; in assay [21], 0.213; in [22], 0.784; in assay [23], 0.695; in assay [24], 0.286. Also, the phage ELISA signal in [25] amounted to 0.284; in assay [26], 0.115; in [27] it was 0.377; in assay [28], 0.141; in [29], 0.084; in [30], 0.418. The figures for the phage ELISA signal in assay [31] and in assay [32] were 0.196 and 0.084, respectively.

B1: DOM1h-131-202 (other)
VH: EVQLLESGGGLVQPGGSLRLSCAASGFTFAHETMVWVRQAPGKGLEWVSHIPPDGQDPFYADSVKGRFTISRDNSKNTLYLQMNSLRAEDTAVYYCALLPKRGPWFDYWGQGTLVTVSS
notes: also called GSK1922567A
Consider B1, for which, in the assay with TNFR1-FC fusion, the “IC50 (read off the curve)” value was about 0.2 nM.
